According to publication PMC2289895 (The Journal of Cell Biology, 1991):

Biological target: the molecule itself
Experiment: SEC + co-IP

B1: NH2 epitope-tagged SIS1 (amino-terminal-tagged SIS1 protein) (natural protein)
chain: MVKETKLYDLLGVSPSANEQELKKGYRKAALKYHPDKPTGDTEKFKEISEAFEILNDPQKREIYDQYGLEAARSGGPSFGPGGPGGAGGAGGFPGGAGGFSGGHAFSNEDAFNIFSQFFGGSSPFGGADDSGFSFSSYPSGGGAGMGGMPGGMGGMHGGMGGMPGGFRSASSSPTYPEEETVQVNLPVSLEDLFVGKKKSFKIGRKGPHGASEKTQIDIQLKPGWKAGTKITYKNQGDYNPQTGRRKTLQFVIQEKSHPNFKRDGDDLIYTLPLSFKESLLGFSKTIQTIDGRTLPLSRVQPVQPSQTSTYPGQGMPTPKNPSQRGNLIVKYKVDYPISLNDAQKRAIDENF
Q: Which “stoichiometry N” value does the source give for B1 here?
A: 2
